Reference: publication PMC4120242

Target: endogenous FcγRI on human monocytes (human (endogenous in blood monocytes)) (UniProt P12314)
UniProt P12314, sequence (P12314 16-374): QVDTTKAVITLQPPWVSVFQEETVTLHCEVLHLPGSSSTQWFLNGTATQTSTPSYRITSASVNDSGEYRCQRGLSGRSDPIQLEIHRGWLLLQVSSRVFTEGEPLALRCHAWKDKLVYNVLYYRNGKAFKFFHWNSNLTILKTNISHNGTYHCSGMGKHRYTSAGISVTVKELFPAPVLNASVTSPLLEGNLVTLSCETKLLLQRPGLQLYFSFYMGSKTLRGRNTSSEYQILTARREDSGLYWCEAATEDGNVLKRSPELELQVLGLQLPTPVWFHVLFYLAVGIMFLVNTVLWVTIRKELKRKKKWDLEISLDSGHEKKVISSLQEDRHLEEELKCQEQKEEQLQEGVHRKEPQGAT

IC50 of inhibition of fibrocyte differentiation of human PBMCs: 2.9 nM
Substance: Serum Amyloid P component (SAP), wildtype (from UniProt P02743 20-223) (natural protein)
